From PMC9820559, “Investigation of the Fuzzy Complex between RSV Nucleoprotein and Phosphoprotein to Optimize an Inhibition Assay by Fluorescence Polarization” (International Journal of Molecular Sciences, 2022) come the findings set out here.

Ends that are not written are not given here. Peptide text beside a SMILES is read from it. * marks the point of attachment. dicyano BODIPY FL = CC1=CC(C)=[N+]2C1=Cc1ccc(CCC(=O)*)n1[B-]2(C#N)C#N; FITC = O=C1OC2(c3ccc(O)cc3Oc3cc(O)ccc32)c2ccc(NC(=S)*)cc21; X1 = Cc1cc(C)n2c1C=C1C=CC(CCC(=O)*)=[N+]1[B-]2(C#N)C#N

The Kd is the concentration at which binding is half-saturated. A word on the IC50: it is the midpoint of a concentration-inhibition curve. By Ki is commonly meant a measure of affinity in units of concentration, obtained from inhibition or displacement.

The target of test [1] is T1, RSV N-RNA complex (Human respiratory syncytial virus A, UniProt P03418).
T1 construct: Full-length N was produced by co-expression with the C-terminal domain of RSV P protein in E. coli BL21(DE3); made in house; host or cells: E. coli BL21(DE3), co-transformed with pET-N and pGEX-P(161–241)
As to the kind of experiment: biochemical. The format is binding. The method, then: We carried out FP measurements using the fluorescent F11 peptide and N-RNA complex. […] No salt was added to promote high affinity.
We first measured binding of Fn peptides (200 nM) to N-RNA in Tris buffer by FP (Figure 5A,B). […] We fitted the data with ΔFPmax and Kd as parameters.
We therefore measured fluorescein FP in the presence of N-RNA. […] To test if fluorescein binds to the P-binding site on the N-RNA, we carried out a competition experiment with M76 (Figure 6C).
We first performed FP measurements in salt-free Tris pH 8 buffer (Figure 8A). We measured binding curves using 200 nM of fluorescent peptides.
(§1) Fluorescence polarization measurements were carried out on a Paradigm Detection Platform (Beckman Coulter, Brea, CA, USA) operating with a microplate reader, a fluorescein detection cartridge (excitation range 485/20 nm, emission range 535/25 nm for both parallel and perpendicular components) and the SpectraMax Pro 6.1 software (Molecular Devices, San Jose, CA, USA). Samples were placed in polystyrene black flat bottom 96-well microplates (Cellstar, Greiner bio-one, Frickenhausen, Germany) with 20 µL final volume in each well. If not stated otherwise, the final concentration of fluorescent ligands was 200 nM. The buffer was either 20 mM MES pH 6.5, salt-free or with 250 mM NaCl, or 20 mM Tris pH 8.0 salt-free or with 100 mM NaCl, supplemented with 0.01% Brij-35. Mixing was done using the corresponding plate reader option. The temperature was set to 20 °C. Data were recorded in top reading mode. Measurements were done in triplicate and after an incubation time of 30 min, if not indicated otherwise. Fluorescence polarization (FP) in mFP units was determined from the parallel (I∥) and perpendicular (I⊥) components of the emitted light according to Equation (4). A grating factor G of 1.2 was determined using 1 nM fluorescein in 1 mM NaOH and assuming a theoretical FP of 27 mFP [48]. Background signal was measured from wells containing only buffer, and the mean value was subtracted from each I∥ and I⊥ component. (4) FP (mP)=1000×(I∥−G∗I⊥)/(I∥+G×I⊥)
We assumed that the measured fluorescence polarization FP is a linear combination of the FP of the fluorescent probe in the absence of N protein (FPmin) and the FP of N-bound fluorescent probe (FPmax), weighted by the molar fraction. The molar fraction x = [P]bound/[P]0 can then be expressed as a ratio of FP differences (Equation (8)). (8) x=(FP−FPmin)/(FPmax−FPmin)=∆FP/∆FPmax
To determine the Kd value of a complex between a fluorescent probe and N protein, a series of samples with constant probe concentration and varying N concentration was measured. FP binding curves were fitted with a single binding site model and a 1:1 stoichiometry.

Test [2] addresses T1, RSV N-RNA complex. As to the kind of experiment: Fluorescence polarization inhibition of N-RNA binding to fluorescent probes. The settings on record: probe BCN8E 200 nM.
Excerpt: We next performed inhibition experiments for the F11-(N-RNA) complex by M76 (Figure 4B). FP values decreased with increasing competitor concentration. At saturation, FP nearly reached the value of free F11, showing that the F11 peptide could be nearly completely displaced. Since the same concentration range was used for NNTD and N-RNA, poor solubility of M76 can be ruled out to explain the saturation observed before complete displacement of F11 in the presence NNTD (Figure 3C). This reinforces the hypothesis of a second binding site on NNTD, outside the canonical P-binding site. […]
To probe the potency of M76 as an inhibitor, we carried out competition experiments with the M76 molecule and several BCNn peptides. M76 was able to displace the fluorescent probes from N-RNA, and inhibition curves were obtained (Figure 8E). Since we used different N concentrations to have similar dynamic ranges of FP for the series of fluorescent peptides, we cannot directly compare M76 IC50s. However, Kis may be compared.
as §1
To assess inhibition of a complex between a fluorescent probe and N protein by peptides or the M76 molecule, the concentration of N was set to work with an FP range comprised between FPmin and ~80% FPmax. Peptides were added from 1 or 2 mM stock solution in water at neutral pH. M76 was added from 10 or 20 mM stock solutions in ethanol or in DMSO. […] Inhibition data were fitted with Origin 7, and in parallel with the Excel solver module. All data were compatible with an absence of cooperativity. FPmax and FPmin were fitted, and the maximal inhibition %i,max was set to 100%. (11) %i=100×[1−(FP−FPmin)/(FPmax−FPmin)] (12) %i=%i,max×[inhibitor]/[inhibitor]+IC50
Inhibition constants Ki were calculated on the IC50-to-Ki converter for a protein-ligand-inhibitor system (https://bioinfo-abcc.ncifcrf.gov/IC50_Ki_Converter/index.php, accessed on 24 August 2022), assuming a competitive mechanism (Equation (13)). This tool takes into account the free concentrations of protein and ligand. (13) Ki=(IC50−[protein]/2)/([peptide]/Kd+1)
Background: In fluorescence polarisation assays a small probe gives low polarisation when free and higher when bound to something large.

The target of test [3] is T2, RSV N-RNA complex (full-length N protein in ring-shaped complexes with bacterial RNA) (human respiratory syncytial virus, UniProt P03418 1-391).
T2 construct: human RSV nucleoprotein N, full length; concentrations are of N protomer; also called N-RNA rings; source: in lysate for the co-purification; purified (glutathione-Sepharose, thrombin, Superdex 200) as N-RNA complex; copies: 10-11
T2 sequence (looked up): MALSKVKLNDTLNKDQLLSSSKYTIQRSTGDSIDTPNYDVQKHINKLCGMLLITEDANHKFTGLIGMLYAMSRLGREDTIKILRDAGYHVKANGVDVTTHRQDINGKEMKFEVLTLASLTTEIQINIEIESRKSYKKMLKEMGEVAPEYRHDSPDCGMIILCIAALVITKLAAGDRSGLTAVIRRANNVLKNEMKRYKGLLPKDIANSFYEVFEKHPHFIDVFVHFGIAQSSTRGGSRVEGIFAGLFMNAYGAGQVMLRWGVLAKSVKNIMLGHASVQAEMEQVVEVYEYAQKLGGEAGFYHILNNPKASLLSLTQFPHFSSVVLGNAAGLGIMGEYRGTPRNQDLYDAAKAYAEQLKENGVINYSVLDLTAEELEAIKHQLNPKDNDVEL
Briefly: fluorescence polarisation; 200 nM dicyano BODIPY FL-labelled BCNn peptide, N-RNA varied; 20 mM Tris pH 8.0 without salt, 0.01% Brij-35; 20 °C; single site model. The conditions noted are these: both partners purified.

In test [4] the target is T2, RSV N-RNA complex (full-length N …). As to the kind of experiment: fluorescence polarisation; competition: unlabeled P_(10EE) varied against 200 nM BCN_(10EE) on 1 µM N-RNA; Tris pH 8 buffer; Hill equation; Ki from the IC50-to-Ki server. The settings on record: both partners purified.
The target is the same in test [5]. As to the kind of experiment: fluorescence polarisation; 200 nM FTU-labelled Fn peptide, N-RNA varied (up to 40 µM N); 20 mM Tris pH 8.0 without salt, 0.01% Brij-35; 20 °C; 30 min incubation; single site model, or with a linear contribution where marked (*). The conditions noted are these: both partners purified.
The target is the same in test [6]. As to the kind of experiment: fluorescence polarisation; competition: unlabeled P peptide varied against 200 nM F11 on 10 µM N-RNA; Tris pH 8 without salt; Hill equation; Ki from the IC50-to-Ki server. The conditions noted are these: both partners purified.
The mark [7] stands for this setting: BCNn peptides 200 nM, Tris pH 8.0, no salt, single site model.

Regarding `Cc1cc(C)n2c1C=C1C=CC(CCC(=O)N[C@@H](CC(N)=O)C(=O)N[C@@H](CC(=O)O)C(=O)N[C@@H](CC(C)C)C(=O)N[C@@H](CCC(=O)O)C(=O)N[C@@H](CC(C)C)C(=O)N[C@@H](CCC(=O)O)C(=O)N[C@@H](CC(=O)O)C(=O)N[C@@H](Cc3ccccc3)C(=O)O)=[N+]1[B-]2(C#N)C#N` [BCN8E] (X1-NDLELEDF-OH), the “decrease of affinity in salty buffer versus salt-free buffer” value in test [1] (100 mM NaCl vs no salt, Tris pH 8) was 5 fold. Besides, the Kd in test [1] (setting [7]) was found to be 1.4 µM. Further, the ΔFPmax in test [1] (setting [7]) is given as 298 ± 5 mFP; in test [1] (BCNn peptides 200 nM, Tris pH 8.0, with salt (100 mM NaCl), (*) saturation not reached), 284 ± 15 (*) mFP. For the same molecule, the “Fitted FPmax” value in test [2] (inhibitor M76, [N-RNA] 2 µM) turned out to be 166 mFP; in test [2] (inhibitor M76, [N-RNA] 5 µM), 196 mFP.

B1: BCN9E (dicyano BODIPY FL-labelled RSV P 9-mer, Ser237Glu) (peptide)
peptide: {dicyano BODIPY FL}-DNDLELEDF
notes: C-terminal 9 residues of RSV phosphoprotein P with a phosphomimetic glutamate at 237; also called B9E; source: synthetic peptide (Fmoc/tBu solid phase, dicyano BODIPY FL coupled on resin, RP-HPLC purified)
For the molecule B1, in test [3], the Kd was 0.96 ± 0.13 µM.

B2: P_(10EE) (unlabeled RSV P 10-mer, Ser232Glu/Ser237Glu) (peptide)
peptide: EDNDLELEDF
notes: unlabeled equivalent of BCN_(10EE), which was made from P_(10EE) on resin; C-terminal 10 residues of RSV phosphoprotein P; source: synthetic peptide
In test [4], B2 yielded an IC50 of 21 ± 4 µM and a Ki of 2.9 µM.

B3: F_(11SE) (FTU-labelled RSV P 11-mer, Ser237Glu) (peptide)
peptide: {FITC}-DSDNDLELEDF
notes: C-terminal 11 residues of RSV phosphoprotein P with a phosphomimetic glutamate at 237; source: synthetic peptide (Fmoc/tBu solid phase), FITC coupled in solution, HPLC purified
With B3, the Kd in test [5] was 0.87 ± 0.26 µM.

B4: P11 (unlabeled RSV P C-terminal 11-mer) (peptide)
peptide: DSDNDLSLEDF
notes: unlabeled peptide from which F11 was made; C-terminal 11 residues of RSV phosphoprotein P; also called P_(11SS); source: bought: GeneCust (synthetic peptide, >95% purity)
Take B4: in test [6], the IC50 was determined as 86 ± 7 µM and the Ki was found to be 34 µM.

B5: P_(11EE) (unlabeled RSV P 11-mer, Ser232Glu/Ser237Glu) (peptide)
peptide: DEDNDLELEDF
notes: unlabeled peptide from which F_(11EE) was made; C-terminal 11 residues of RSV phosphoprotein P; source: synthetic peptide (Fmoc/tBu solid phase, RP-HPLC purified)
B5: in test [6], the half-inhibitory concentration (IC50) was 22 ± 4 µM and the Ki was 6 µM.

B6: F_(11EE) (FTU-labelled RSV P 11-mer, Ser232Glu/Ser237Glu) (peptide)
peptide: {FITC}-DEDNDLELEDF
notes: C-terminal 11 residues of RSV phosphoprotein P with phosphomimetic glutamates at 232 and 237; source: synthetic peptide (Fmoc/tBu solid phase), FITC coupled in solution, HPLC purified
With B6, the dissociation constant (Kd) in test [5] is 0.38 ± 0.12 µM.
